{"source": "patent US20030032592A1", "about": "(published 2003)", "binders": {"B1": {"name": "Oxysterol liver X receptor alpha (LXR-alpha), amino acids 95-277, Gal4 DNA-binding-domain fusion (bait) (receptor, UniProt P04386 1-147, looked up)", "chain": "MKLLSSIEQACDICRLKKLKCSKEKPKCAKCLKNNWECRYSPKTKRSPLTRAHLTEVESRLERLEQLFLLIFPREDLDMILKMDSLQDIKALLTGLFVQDNVNKDAVTDRLASVETDMPLTLRQHRISATSSSEESSNKGQRQLTVSNELCSVCGDKASGFHYNVLSCEGCKGFFRRSVIKGAHYICHSGGHCPMDTYMRRKCQECRLRKCRQAGMREECVLSEEQIRLKKLKRQEEEQAHATSLPPRASSPPQILPQLSPEQLGMIEKLVAAQQQCNRRSFSDRLRVTPWPMAPDPHSREARQQRFAHFTELAIVSVQEIVDFAKQLPG", "notes": "range 1-147;range 95-277; Bait made by PCR from brain cDNA and expressed in yeast from vector pGBTQ as a C-terminal fusion to Gal4 DBD"}, "B2": {"name": "Homer-3, amino acids 182-354, Gal4 activation-domain fusion (prey clone) (other, yeast (Saccharomyces cerevisiae);human, UniProt P04386 768-881, looked up, not shown: small tags and cut ends)", "chain": "ANFNQSGNIADSSLSFTFTNSSNGPNLITTQTNSQALSQPIASSNVHDNFMNNEITASKIDDGNNSKPLSPGWTDQTAYNAFGITTGMFNTTTMDDVYNYLFDDEDTPPNPKKEEVQWEAEFFALQDSNNKLAGALREANAAAAQWRQQLEAQRAEAERLRQRVAELEAQAASEVTPTGEKEGLGQGQSLEQLEALVQTKDQEIQTLKSQTGGPREALEAAEREETQQKVQDLETRNAELEHQLRAMERSLEEARAERERARAEVGRAAQLLDVSLFELSELREGLA", "notes": "range 768-881;range 182-354; Clone from the human brain cDNA library in pACT2; The printed GenBank number has one digit too many"}, "B3": {"name": "EIF3S1, amino acids 94-254, Gal4 activation-domain fusion (prey clone) (other, yeast (Saccharomyces cerevisiae);human, UniProt P04386 768-881, looked up, not shown: small tags and cut ends)", "chain": "ANFNQSGNIADSSLSFTFTNSSNGPNLITTQTNSQALSQPIASSNVHDNFMNNEITASKIDDGNNSKPLSPGWTDQTAYNAFGITTGMFNTTTMDDVYNYLFDDEDTPPNPKKEEIKKRLEEPEEPKVLTPEEQLADKLRLKKLQEESDLELAKETFGVNNAVYGIDAMNPSSRDDFTEFGKLLKDKITQYEKSLYYASFLEVLVRDVCISLEIDDLKKITNSLTVLCSEKQKQEKQSKAKKKKKGVVPGGGLKATMKDDLADYGGYDGGYVQDY", "notes": "range 768-881;range 94-254; Clone from the human brain cDNA library in pACT2; also called translation initiation factor EIF3S1"}, "B4": {"name": "Oxysterol liver X receptor alpha (LXR-alpha), amino acids 95-156, Gal4 DNA-binding-domain fusion (bait) (receptor, UniProt P04386 1-147, looked up)", "chain": "MKLLSSIEQACDICRLKKLKCSKEKPKCAKCLKNNWECRYSPKTKRSPLTRAHLTEVESRLERLEQLFLLIFPREDLDMILKMDSLQDIKALLTGLFVQDNVNKDAVTDRLASVETDMPLTLRQHRISATSSSEESSNKGQRQLTVSNELCSVCGDKASGFHYNVLSCEGCKGFFRRSVIKGAHYICHSGGHCPMDTYMRRKCQECRLR", "notes": "range 1-147;range 95-156; Bait expressed in yeast from pGBTQ as a C-terminal fusion to Gal4 DBD"}, "B5": {"name": "CIR, amino acids 226-450, Gal4 activation-domain fusion (prey clone) (other, yeast (Saccharomyces cerevisiae);human, UniProt P04386 768-881, looked up, not shown: small tags and cut ends)", "chain": "ANFNQSGNIADSSLSFTFTNSSNGPNLITTQTNSQALSQPIASSNVHDNFMNNEITASKIDDGNNSKPLSPGWTDQTAYNAFGITTGMFNTTTMDDVYNYLFDDEDTPPNPKKERKLDRLEKKKKKKDRKKKKFQKSRSKHKKHKSSSSSSSSSSSSSSTETSESSSESESNNKEKKIQRKKRKKNKCSGHNNSDSEEKDKSKKRKLHEELSSSHHNREKAKEKPRFLKHESSREDSKWSHSDSDKKSRTHKHSPEKRGSERKEGSSRSHGREERSRRSRSRSPGSYKQRETRKRAQRNPGEEQSRRNDSRSHGTDLYRGEKMYREHPGGTHTKVTQRE", "notes": "range 768-881;range 226-450; Clone from the human brain cDNA library in pACT2; also called transcription factor CIR"}}, "key": {"[1]": {"biological_target": "T1, PSMD11, amino acids 87-422, Gal4 activation-domain fusion (prey clone) (yeast (Saccharomyces cerevisiae); human, UniProt P04386 768-881; O00231 87-422)", "T1 construct": "range 768-881;range 87-422; Clone from the human brain cDNA library in pACT2; also called proteasome subunit PSMD11", "experiment": "yeast two-hybrid; prey clone identified for the bait of the same row (Ex. 10)", "excerpt": "(§1) A total human brain (person) cDNA library cloned into the yeast expression vector pACT2 was purchased from Clontech (human brain […] cDNA, cat. # HL4004AH), transformed into the yeast strain J692 (genotype of this strain: Mat a, ade2, his3, leu2, trp1, URA3::GAL1-1acZ LYS2::GAL1-HIS3 ga14del ga180del cyhR2), and selected for the ability to drive leucine synthesis. In these yeast cells, each cDNA is expressed as a fusion protein with the transcription activation domain of the transcription factor Ga14 (amino acids 768 to 881) and a 9 amino acid hemagglutinin epitope tag. J693 cells (Mat α type) expressing the bait were then mated with J692 cells ([…]) expressing proteins from the brain library. The resulting diploid yeast cells expressing proteins interacting with the bait protein were selected for the ability to synthesize tryptophan, leucine, histidine, and β-galactosidase. DNA was prepared from each clone, transformed by electroporation into E. coli strain KC8 (Clontech KC8 electrocompetent cells, cat. # C2023-1), and the cells were selected on ampicillin-containing plates in the absence of either tryptophane (selection for the bait plasmid) or leucine (selection for the brain library plasmid). DNA for both plasmids was prepared and sequenced by di-deoxynucleotide chain termination method. […]"}, "[2]": {"biological_target": "B1", "experiment": "yeast two-hybrid; prey clone identified for the bait of the same row (Ex. 6)", "excerpt": "as §1"}, "[3]": {"biological_target": "T2, Oxysterol liver X receptor alpha (LXR-alpha), amino acids 257-448, Gal4 DNA-binding-domain fusion (bait) (yeast (Saccharomyces cerevisiae), UniProt P04386 1-147; Q13133 257-447)", "T2 construct": "range 1-147;range 257-448; Bait expressed in yeast from pGBTQ as a C-terminal fusion to Gal4 DBD", "experiment": "yeast two-hybrid; prey clone identified for the bait of the same row (Ex. 8)", "excerpt": "as §1"}, "[4]": {"biological_target": "T3, Oxysterol liver X receptor alpha (LXR-alpha), amino acids 156-448, Gal4 DNA-binding-domain fusion (bait) (yeast (Saccharomyces cerevisiae), UniProt P04386 1-147; Q13133 156-447)", "T3 construct": "range 1-147;range 156-448; Bait expressed in yeast from pGBTQ as a C-terminal fusion to Gal4 DBD", "experiment": "yeast two-hybrid; prey clone identified for the bait of the same row (Ex. 9)", "excerpt": "as §1"}, "[5]": {"biological_target": "T4, zyxin, amino acids 323-572, Gal4 activation-domain fusion (prey clone) (yeast (Saccharomyces cerevisiae); human, UniProt P04386 768-881; Q15942 323-572)", "T4 construct": "range 768-881;range 323-572; Clone from the human brain cDNA library in pACT2", "T4 sequence (looked up)": "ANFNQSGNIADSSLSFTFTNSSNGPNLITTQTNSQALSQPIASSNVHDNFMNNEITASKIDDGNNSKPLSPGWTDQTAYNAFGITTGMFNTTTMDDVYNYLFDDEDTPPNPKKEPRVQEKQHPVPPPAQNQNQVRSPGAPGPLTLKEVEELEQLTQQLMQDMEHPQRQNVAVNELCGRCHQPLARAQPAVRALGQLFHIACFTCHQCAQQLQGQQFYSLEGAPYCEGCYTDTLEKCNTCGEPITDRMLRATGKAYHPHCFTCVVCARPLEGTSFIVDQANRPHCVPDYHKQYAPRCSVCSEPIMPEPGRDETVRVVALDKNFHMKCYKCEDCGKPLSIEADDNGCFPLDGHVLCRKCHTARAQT", "experiment": "yeast two-hybrid; prey clone identified for the bait of the same row (Ex. 4)", "excerpt": "as §1"}, "[6]": {"biological_target": "T3, Oxysterol liver X receptor alpha …", "experiment": "yeast two-hybrid; prey clone identified for the bait of the same row (Ex. 12)", "excerpt": "as §1"}}, "data": [{"binder": "B1", "values": [{"measurement": "binding result", "setting": "[1]", "value": "binds"}]}, {"binder": "B2", "values": [{"measurement": "binding result", "setting": "[2]", "value": "binds"}]}, {"binder": "B3", "values": [{"measurement": "binding result", "setting": "[3]", "value": "binds"}, {"measurement": "binding result", "setting": "[4]", "value": "binds"}]}, {"binder": "B4", "values": [{"measurement": "binding result", "setting": "[5]", "value": "binds"}]}, {"binder": "B5", "values": [{"measurement": "binding result", "setting": "[6]", "value": "binds"}]}]}
